Read-outs that look alike come from different tables or passages of the source.
Legend:
[1] = target: T1, HSV-1 DNA polymerase catalytic subunit UL30 (exonuclease proficient) (Herpes simplex virus 1, UniProt P04293 1-1235); assay: competition
[2] = target: T1, HSV-1 DNA polymerase catalytic subunit …; assay: competition; remark: listed apart in the source

T1 sequence (P04293 whole entry): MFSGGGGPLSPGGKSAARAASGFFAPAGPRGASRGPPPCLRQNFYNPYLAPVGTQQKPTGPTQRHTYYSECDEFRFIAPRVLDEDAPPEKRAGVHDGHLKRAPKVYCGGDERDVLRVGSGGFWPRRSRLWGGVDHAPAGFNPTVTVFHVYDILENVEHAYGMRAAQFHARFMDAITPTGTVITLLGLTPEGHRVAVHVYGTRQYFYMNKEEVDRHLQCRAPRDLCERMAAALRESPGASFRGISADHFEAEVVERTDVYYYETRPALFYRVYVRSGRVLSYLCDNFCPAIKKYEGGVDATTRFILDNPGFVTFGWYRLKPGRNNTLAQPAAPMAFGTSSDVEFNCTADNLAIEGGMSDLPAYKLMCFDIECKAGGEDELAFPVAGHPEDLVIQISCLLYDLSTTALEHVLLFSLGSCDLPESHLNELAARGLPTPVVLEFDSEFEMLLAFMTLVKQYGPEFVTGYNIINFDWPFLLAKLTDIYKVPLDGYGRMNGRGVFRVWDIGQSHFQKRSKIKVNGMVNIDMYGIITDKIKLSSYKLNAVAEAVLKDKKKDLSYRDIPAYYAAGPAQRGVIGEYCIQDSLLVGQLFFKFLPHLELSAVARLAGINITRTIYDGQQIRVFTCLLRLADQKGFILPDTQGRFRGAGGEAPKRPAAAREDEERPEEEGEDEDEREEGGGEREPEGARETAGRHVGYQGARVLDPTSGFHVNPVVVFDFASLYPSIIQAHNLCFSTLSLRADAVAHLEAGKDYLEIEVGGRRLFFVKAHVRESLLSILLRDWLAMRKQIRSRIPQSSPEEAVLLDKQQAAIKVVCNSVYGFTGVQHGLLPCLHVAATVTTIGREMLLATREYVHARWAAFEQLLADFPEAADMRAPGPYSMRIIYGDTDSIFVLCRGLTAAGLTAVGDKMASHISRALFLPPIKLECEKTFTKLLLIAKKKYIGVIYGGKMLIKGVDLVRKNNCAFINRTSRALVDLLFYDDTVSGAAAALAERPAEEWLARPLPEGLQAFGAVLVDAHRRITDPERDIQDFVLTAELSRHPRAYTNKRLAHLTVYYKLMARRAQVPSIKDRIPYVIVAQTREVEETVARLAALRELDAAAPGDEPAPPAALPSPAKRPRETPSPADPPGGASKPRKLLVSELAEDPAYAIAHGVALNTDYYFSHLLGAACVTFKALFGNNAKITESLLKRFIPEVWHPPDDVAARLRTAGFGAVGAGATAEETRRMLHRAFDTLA

Row | Binder | binding result [1] | binding result [2]
1 | GCTCTGTTCCGGTTTG (ssDNA, 2',3'-dideoxyG at 3' end, position 16 (printed D*)) [DNA16ddss] | binds | 
2 | DNA16ACV (dsDNA, acyclovir monophosphate (acyclic G) at 3' end of primer, position 16 (printed A*)) DNA 1: GCTCTGTTCCGGTTTG DNA 2: CATGATTAGATGAAACACAAACCGGAACAGAGC |  | binds
3 | DNA16GCV (dsDNA, ganciclovir monophosphate (acyclic G) at 3' end of primer, position 16 (printed G*)) DNA 1: GCTCTGTTCCGGTTTG DNA 2: CATGATTAGATGAAACACAAACCGGAACAGAGC |  | binds
4 | DNA16dd (dsDNA, 2',3'-dideoxyG at 3' end of primer, position 16 (printed D*)) DNA 1: GCTCTGTTCCGGTTTG DNA 2: CATGATTAGATGAAACACAAACCGGAACAGAGC |  | binds
5 | GCTCTGTTCCGGTTTG (ssDNA, acyclovir monophosphate (acyclic G) at 3' end, position 16 (printed A*)) [DNA16ACVss] | binds | 
